Reference: patent US20250259704A1, “SYSTEMS AND METHODS FOR CELL-FREE ITERATIVE SITE SATURATION MUTAGENESIS AND ITS APPLICATION FOR THE DIRECTED EVOLUTION OF ENZYMES CATALYZING UNNATURAL REACTIONS” (Northwestern University, priority 2022, published 2025)

Key:
amide synthetase McbA [1] = assay: High-throughput amidation assay with crude CFPS-expressed McbA variants (hot spot screen, ISM); format: biochemical, Marinactinospora thermotolerans; details: final screening conditions; moclobemide synthesis; 25 mM ATP, acid, amine, 10% v/v DMSO, 37° C. 16 hours
Method: Amide products (along with acid substrates and some adenylated acid intermediates) were analyzed using an Agilent G6125B Single Quadrupole LC/MSD system equipped with an electrospray ionization source set to positive ionization mode. The quenched samples were centrifuged for 10 min at 4,500×g to remove precipitated proteins. A separate 384-well plate for sample injection into the HPLC-MS was prepared by diluting 5 μL of the quenched samples with 25 μL of methanol using the Integra VIAFLO. Trace amounts of compounds were detected using MS, while many compounds were present in high enough concentration to quantify by diode array detector (DAD) at 254 nm. Compounds were separated on a Luna C18 Column (Phenomenex 00D-4251-B0) using mobile phases (A) H2O with 0.1% formic acid and (B) Acetonitrile. The general method for chromatographic separation was carried out using the following gradients at a constant flow rate of 0.5 mL/min: 0 min 5% B; 1 min 5% B; 4 min 95% B; 4.5 min 95% B; 5 min 5% B. For the MS, capillary voltage was set at 3 kV, and nitrogen gas was used for nebulizing (35 psig) and drying (12 l/min, 350° C.). The MS was calibrated using Tuning Mix (Agilent G2421-60001) before measurements were taken. […] LC-MS data were collected and analyzed using Agilent OpenLab CDS ChemStation software. The product yield was calculated by dividing the DAD peak area for the amide product by the sums of the peak areas of both the amide and the acid substrate.
All high-throughput assays (hot spot screen, iterative site saturation mutagenesis, substrate scope, ML predictions validation, and ML prediction exploration) were assembled in 384-well plates (Bio-Rad) using an Integra VIAFLO liquid handling robot. […] The amidation assay was initiated by adding 3-μL of crude CFPS reaction containing an expressed McbA variant, with final concentrations of 25 mM ATP, 25 mM acid, 25 mM amine, 10% v/v DMSO, and ˜1 μM of enzyme (determined by ^14C-leucine incorporation using previously described protocols^66). […]

[2] = Protein melting temperature by circular dichroism; format: physicochemical
Method: Protein melting temperature was determined using a Jasco J-810 circular dichroism spectrophotometer with a 10 mm path length cuvette monitored at 222 nm. McbA samples were first buffer exchanged into a 1× phosphate buffered saline solution, pH 7.4, and diluted to 0.2-0.4 mg/mL.

amide synthetase McbA [3] = assay: Apparent steady-state kinetics, amide bond formation coupled to NADH oxidation; format: biochemical, Marinactinospora thermotolerans; details: kcat/KM for the amine, versus wt-McbA
Method: McbA apparent kinetics for the amine pair of moclobemide (4-(2-aminoethyl)morpholine) were determined by enzymatically coupling amide bond formation (and the concomitant release of AMP from the acyl-AMP intermediate by its substitution with the amine) with the oxidation of NADH, as shown in FIGS. 7A-7B. Reactions contained 100 mM MOPS-KOH pH 7.8, 5 mM MgCl2, 2.5 mM phosphoenolpyruvate, 5 mM ATP, 0.3 mM NADH, 50 mM 4-chlorobenzoic acid, 15 U/mL pyruvate kinase and lactate dehydrogenase enzyme mix (Sigma-Aldrich P0294), 25 U/mL myokinase (Sigma-Aldrich 475941), and various concentrations (50-200 μg/mL) of the studied McbA variant. As the acid here (4-chlorobenzoic acid) has poor solubility in water and was dissolved in DMSO, the final reactions contained 10% v/v DMSO (equivalent to our amidation screens). 180-μL reactions were first equilibrated at 30° C. for 3 minutes and then initiated by adding 20-μL of amine. The initial velocity was determined for different concentrations of amine (0.1 mM-50 mM) by measuring NADH absorbance at 340 nm on a Cary 60 UV-Vis (Agilent). Data were collected and analyzed using the Cary WinUV Kinetics Application software (Agilent). Michaelis-Menten graphs were plotted in GraphPad Prism and fit using the default Michaelis-Menten non-linear regression analysis tool.

B1: qm-McbAmoclobemide: quadruple mutant of McbA from ISM campaign for moclobemide, SEQ ID NO: 145 (protein)
chain: MEKKIWSHPQFEKGGSGENLYFQGGYARRVMDGIGEVAVTGAGGSVTGARLRHQVRLLAHALTEAGIPPGRGVACLHANTWRAIALRLAVQAIGCHYVGLRPTAAVTEQARAIAAADSAALVFEPSVEARAADLLERVSVPVVLSLGPTSRGRDILAASVPEGTPLRYREHPEGIASVAFTSGTTGTPKGVAHSSTAMSACVDAAVSMYGRGPWRFLIPSPLSDLGGELAQCTLATGGTVVLLEEFQPDAVLEAIERERATHVFLAPNWLYQLAEHPALPRSDLSSLRRVVYGGAPAVPSRVAAARERMGAVLMQNYGTQEAFFIAALTPDDHARRELLTAVGRPLPHVEVEIRDDSGGTLPRGAVGEVWVRSPMTMSGYWRDPERTAQVLSGGWLRTGDVGTFDEDGHLHLTDRLQDIIIVEAYNVYSLRVEHVLTEHPDVRAAAVVGVPDPDSGEAVCAAVVVADGADPDPEHLRALVRDHLGDLHVPRRVEFVRSIPVTPAGKPDKVKVRTWFTD
In the case of B1, the “conversion (yield) of moclobemide” value (amide synthetase McbA [1]) is reported as 96%, the “melting point change versus wt-McbA” value [2] is reported as “did not significantly change” and the “increase in catalytic efficiency from wt-McbA” value (amide synthetase McbA [3]) is reported as 42 fold.
